Measurements taken from patent publication US20230037815A1 (CULLINAN THERAPEUTICS, published 2023).

T1: human CD19 (human, UniProt P15391 20-291, biotinylated in the Biacore assay of Table 11)
T1 construct: also called isolated CD19; Human CD19 Protein
T1 sequence (looked up): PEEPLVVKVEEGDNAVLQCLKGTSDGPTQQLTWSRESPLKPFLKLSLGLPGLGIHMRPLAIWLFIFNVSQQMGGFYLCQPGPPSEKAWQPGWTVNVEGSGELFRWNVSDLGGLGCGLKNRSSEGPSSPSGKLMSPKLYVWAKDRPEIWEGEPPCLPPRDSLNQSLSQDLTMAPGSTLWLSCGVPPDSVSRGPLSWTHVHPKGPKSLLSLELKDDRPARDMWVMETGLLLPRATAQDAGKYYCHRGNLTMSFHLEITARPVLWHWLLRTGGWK

T2: human CD19 on CHO cells (human, UniProt P15391 20-556)
T2 construct: whole, on cells; also called Cells Expressing Human CD19; CHO cells overexpressing the antigen
T2 sequence (looked up): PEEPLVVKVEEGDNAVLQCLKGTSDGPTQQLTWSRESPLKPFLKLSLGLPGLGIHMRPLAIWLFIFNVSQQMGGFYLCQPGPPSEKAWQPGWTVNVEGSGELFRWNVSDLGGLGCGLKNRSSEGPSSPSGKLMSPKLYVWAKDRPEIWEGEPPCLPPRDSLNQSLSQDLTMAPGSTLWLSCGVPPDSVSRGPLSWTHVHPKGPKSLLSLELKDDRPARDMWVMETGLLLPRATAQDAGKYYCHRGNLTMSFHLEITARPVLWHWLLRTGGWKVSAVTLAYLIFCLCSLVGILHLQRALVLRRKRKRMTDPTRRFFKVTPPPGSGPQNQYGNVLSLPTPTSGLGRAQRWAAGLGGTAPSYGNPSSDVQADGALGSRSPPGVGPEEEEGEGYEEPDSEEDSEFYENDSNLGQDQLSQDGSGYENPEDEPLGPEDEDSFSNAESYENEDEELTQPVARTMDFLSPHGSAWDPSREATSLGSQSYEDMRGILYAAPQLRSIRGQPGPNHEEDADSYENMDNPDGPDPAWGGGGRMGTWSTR

B1: CNG-CD19-7 (antibody, V domains shown)
VH: QVQLQESGPGLVKPSQTLSLTCTVSGGSISTSGMGVGWIRQHPGKGLEWIGHIWWDDDKRYNPALKSRVTISVDTSKNQFSLKLSSVTAADTAVYYCARMELWSYYFDYWGQGTLVTVSS
VL: EIVLTQSPATLSLSPGERATLSCSASSSVSYMHWYQQKPGQAPRLLIYDTSKLASGIPARFSGSGSGTDFTLTISSLEPEDFAVYYCFQGSVYPFTFGQGTKLEIK
notes: tested as IgG; also called parental antibody
B2: CNG-CD19-702 (antibody, V domains shown)
VH: QVQLQESGPGLVKPSQTLSLTCTVSGGSTSTSGMGVSWIRQHPGKGLEWIGHIWWDDDKRYNPVLKSRVTISVDTSKNQFSLKLSSVTAADTAVYYCARMELWSYYFDPWGQGTLVTVSS
VL: EIVLTQSPATLSLSPGERATLSCSASSSVSYMHWYQQKPGQAPRLLIYDTSKLASGIPARFSGSGSGTDFTLTISSLEPEDFAVYYCFQGSVYPFTFGQGTKLEIK
notes: tested as IgG produced in yeast
B3: CNG-CD19-701 (antibody, V domains shown)
VH: QVQLQESGPGLVKPSQTLSLTCTVSGGSISTSTMGVGWIRQHPGKGLEWIGFIWWDDDKRYNPNLKSRVTMSVDTSKNQFSLKLSSVTAADTAVYYCARMELWSYYFDYWGQGTLVTVSS
VL: EIVLTQSPATLSLSPGERATLSCSASSSVGYMHWYQQKPGQAPRLLIYDTSKLASGIPARFSGSGSGTDFTLTISSLEPEDFAVYYCFQGSVYPFTFGQGTKLEIK
notes: as for B2
B4: CNG-CD19-703 (antibody, V domains shown)
VH: QVQLQESGPGLVKPSQTLSLTCTVSGGSISTSTMGVGWIRQHPGKGLEWIGFIWWDDDKRYNPNLKSRVTMSVDTSKNQFSLKLSSVTAADTAVYYCARMELWSYYFEYWGQGTLVTVSS
VL: EIVLTQSPATLSLSPGERATLSCSASSSVSYMHWYQQKPGQAPRLLIYDTSKLASGIPARFSGSGSGTDFTLTISSLEPEDFAVYYCFQGSVYPFTFGQGTKLEIK
notes: as for B2
B5: CNG-CD19-1 (antibody, V domains shown)
VH: QVQLVQSGAEVKKPGASVKVSCKASGYTFTDYIMHWVRQAPGQGLEWMGYINPYNDGSKYTEKFQGRVTMTSDTSISTAYMELSRLRSDDTAVYYCARGTYYYGPQLFDYWGQGTTVTVSS
VL: DIVMTQTPLSLSVTPGQPASISCKSSQSLETSTGTTYLNWYLQKPGQSPQLLIYRVSKRFSGVPDRFSGSGSGTDFTLKISRVEAEDVGVYYCLQLLEDPYTFGQGTKLEIK
notes: as for B1
B6: CNG-CD19-101 (antibody, V domains shown)
VH: QVQLVQSGAEVKKPGASVKVSCKASGYDFTDYIMHWVRQAPGQGLEWMGYINPYNDGSKYTDKFQERVTMTSDTSISTAYMELSRLRSDDTAVYYCARGTYYYGPELFDYWGQGTTVTVSS
VL: DIVMTQTPLSLSVTPGQPASISCKSSQSLETTTGTTYLNWYLQKPGQSPQLLIYRASKRFSGVPDRFSGSGSGTDFTLKISRVEAEDVGVYYCLQLLEDPYTFGQGTKLEIK
notes: as for B2
B7: CNG-CD19-104 (antibody, V domains shown)
VH: QVQLVQSGAEVKKPGASVKVSCKASGYDFTDYIVHWVRQAPGQGLEWMGYINPYNDGSKYTEKFQGRVTMTSDTSISTAYMELSRLRSDDTAVYYCARGTYYYGPELFDYWGQGTTVTVSS
VL: DIVMTQTPLSLSVTPGQPASISCKSGQSLETSTGTTYLNWYLQKPGQSPQLLIYRVSRRFSGVPDRFSGSGSGTDFTLKISRVEAEDVGVYYCLQLLEDPYTFGQGTKLEIK
notes: as for B2
B8: CNG-CD19-109 (antibody, V domains shown)
VH: QVQLVQSGAEVKKPGASVKVSCKASGYDFTDYIVHWVRQAPGQGLEWMGYINPYNDGSLYTEKFQGRVTMTSDTSISTAYMELSRLRSDDTAVYYCARGTYYYGPQLFDYWGQGTTVTVSS
VL: DIVMTQTPLSLSVTPGQPASISCKSSQQLETSTGTTYLNWYLQKPGQSPQLLIYRASKRFSGVPDRFSGSGSGTDFTLKISRVEAEDVGVYYCLQLLEDPYSFGQGTKLEIK
notes: as for B2
B9: CNG-CD19-103 (antibody, V domains shown)
VH: QVQLVQSGAEVKKPGASVKVSCKASGYTFTDYIMHWVRQAPGQGLEWMGYINPYNDGSKYTEKFQGRVTMTSDTSISTAYMELSRLRSDDTAVYYCARGTYYYGPQLFDYWGQGTTVTVSS
VL: DIVMTQTPLSLSVTPGQPASISCKSSQSLETATGTTYLNWYLQKPGQSPQLLIYRVSRRFSGVPDRFSGSGSGTDFTLKISRVEAEDVGVYYCLQLLEDPYSFGQGTKLEIK
notes: as for B2
B10: CNG-CD19-106 (antibody, V domains shown)
VH: QVQLVQSGAEVKKPGASVKVSCKASGYDFTDYIMHWVRQAPGQGLEWMGYINPYNDGSEYTEKFQGRVTMTSDTSISTAYMELSRLRSDDTAVYYCARGTYYYGPQLFDYWGQGTTVTVSS
VL: DIVMTQTPLSLSVTPGQPASISCKSSQSLETATGTTYLNWYLQKPGQSPQLLIYRVSRRFSGVPDRFSGSGSGTDFTLKISRVEAEDVGVYYCLQLLEDPYTFGQGTKLEIK
notes: as for B2
B11: CNG-CD19-110 (antibody, V domains shown)
VH: QVQLVQSGAEVKKPGASVKVSCKASGYTFTDYIMHWVRQAPGQGLEWMGYINPYNDGSKYTEKFQGRVTMTSDTSISTAYMELSRLRSDDTAVYYCARGTYYYGPQLFDYWGQGTTVTVSS
VL: DIVMTQTPLSLSVTPGQPASISCKSSQSLETSTGTTYLNWYLQKPGQSPQLLIYRSSKRFSGVPDRFSGSGSGTDFTLKISRVEAEDVGVYYCLQLLEDPPTFGQGTKLEIK
notes: as for B2
B12: CNG-CD19-108 (antibody, V domains shown)
VH: QVQLVQSGAEVKKPGASVKVSCKASGYDFTDYIVHWVRQAPGQGLEWMGYINPYNDGSKYTEKFQGRVTMTSDTSISTAYMELSRLRSDDTAVYYCARGTYYYGPQLFDYWGQGTTVTVSS
VL: DIVMTQTPLSLSVTPGQPASISCKSSQSLETVTGTTYLNWYLQKPGQSPQLLIYRVSKRFSGVPDRFSGSGSGTDFTLKISRVEAEDVGVYYCLQLLEDPPTFGQGTKLEIK
notes: as for B2
B13: CNG-CD19-105 (antibody, V domains shown)
VH: QVQLVQSGAEVKKPGASVKVSCKASGYEFTDYIMHWVRQAPGQGLEWMGYINPYNDGSKYTEKFEGRVTMTSDTSISTAYMELSRLRSDDTAVYYCARGTYYYGPELFDYWGQGTTVTVSS
VL: DIVMTQTPLSLSVTPGQPASISCKSSQRLETSTGTTYLNWYLQKPGQSPQLLIYRVSRRFSGVPDRFSGSGSGTDFTLKISRVEAEDVGVYYCLQLLEDPPTFGQGTKLEIK
notes: as for B2
B14: CNG-CD19-107 (antibody, V domains shown)
VH: QVQLVQSGAEVKKPGASVKVSCKASGYDFTDYIMHWVRQAPGQGLEWMGYINPYNDGSKYTEKFQHRVTMTSDTSISTAYMELSRLRSDDTAVYYCARGTYYYGPQLFDYWGQGTTVTVSS
VL: DIVMTQTPLSLSVTPGQPASISCKSSQSLETSTGTTYLNWYLQKPGQSPQLLIYRVSRRFSGVPDRFSGSGSGTDFTLKISRVEAEDVGVYYCLQLLEDPYTFGQGTKLEIK
notes: as for B2
B15: CNG-CD19-102 (antibody, V domains shown)
VH: QVQLVQSGAEVKKPGASVKVSCKASGYEFTDYIMHWVRQAPGQGLEWMGYINPYNDGSKYTEKFQPRVTMTSDTSISTAYMELSRLRSDDTAVYYCARGTYYYGPQLFDYWGQGTTVTVSS
VL: DIVMTQTPLSLSVTPGQPASISCKSSQSLETSTGTTYLNWYLQKPGQSPQLLIYRVSKRFSGVPDRFSGSGSGTDFTLKISRVEAEDVGVYYCLQLLEDPYTFGQGTKLEIK
notes: as for B2

How the values were obtained:
human CD19 = biological target: T1, human CD19; assay: Octet HTX (ForteBio), IgG on AHC sensor, 1:1 fit
Method: The binding affinity of the antibodies to isolated CD19 was measured by […] using a ForteBio Octet HTX system as previously described (see, e.g., Estep et al, High throughput solution-based measurement of antibody-antigen affinity and epitope binning. Mabs 5(2), 270-278 (2013)). Briefly, ForteBio affinity measurements were performed by loading IgGs on-line onto anti-hIgG Fc Capture (AHC) sensors. The sensors were equilibrated off-line in assay buffer for 30 minutes and then monitored on-line for 60 seconds for baseline establishment. The sensors with loaded IgGs were exposed to 100 nM […] for 3 minutes, and subsequently transferred to assay buffer for 3 minutes for off-rate measurement. All kinetics were analyzed using the 1:1 binding model.

human CD19 on CHO cells = biological target: T2, human CD19 on CHO cells; assay: flow cytometry, CHO cells, 100 nM IgG
Method: The binding affinity of the antibodies to CD19 expressed on the cell surface was also measured. Briefly, approximately 100,000 Chinese hamster overy (CHO) cells overexpressing the antigen were washed with wash buffer and incubated with 100 μl 100 nM IgG for 15 minutes at room temperature. Cells were then washed twice with wash buffer and incubated with 100 μl of 1:100 Human-PE for 15 minutes on ice. Cells were then washed twice more with wash buffer and analyzed on a FACS Canto II analyzer (BD Biosciences).

| Binder | Kd (human CD19) [nM] | koff (human CD19) [s⁻¹] | Binding to Cells Expressing Human CD19 (FOB) (human CD19 on CHO cells) |
| --- | --- | --- | --- |
| B1 | 2.25 | 0.000396 | 71 |
| B2 | 0.5 | 0.000175 | 180 |
| B3 | 0.187 | 7.05e-05 | 195 |
| B4 | 0.289 | 8.19e-05 | 135 |
| B5 | 0.346 | 0.000114 | 267 |
| B6 | 0.144 | 5.72e-05 | 296 |
| B7 | 0.144 | 6e-05 | 327 |
| B8 | 0.144 | 4e-05 | 334 |
| B9 | 0.106 | 4e-05 | 286 |
| B10 | 0.189 | 0.000114 | 354 |
| B11 | 0.353 | 0.000121 | 293 |
| B12 | 0.164 | 5.26e-05 | 319 |
| B13 | 0.164 | 8.28e-05 | 351 |
| B14 | 0.277 | 5.71e-05 | 315 |
| B15 | 0.298 | 9.12e-05 | 258 |
